This assay in a line: Estimation of binding affinity by Octet. An excerpt: Murine R24 (mR24) is a murine antibody that binds GD3 (SEQ ID NOs: 17 and 19). To minimize the risk of immunogenicity, an attempt was made to humanize mR24 for further therapeutic development. An earlier attempt to humanize mR24 is disclosed in WO2008/101234. The CDRs of murine antibody mR24 were identified using Kabat. Humanization of mR24 was first attempted using the semi-empirical framework shuffle approach. In this approach, human germline frameworks with a high degree of homology with mR24 sequences, VL frameworks V1-12 and V3-11 and VH framework V3-7, were selected. The selected frameworks were then used as the acceptor framework for mR24 without any backmutations in the framework region. The CDRs of mR24 were then inserted into the acceptor frameworks, and antibody proteins were generated and assessed for their expression yield, purification properties, and GD3 target binding activity. After screening, two advanced humanization variants with high GD3 binding activity, overall expression yields, and stability, hAb 21 (SEQ ID NOs: 30 and 31, VL framework V3-11 and VH framework V3-7) and hAb3 (SEQ ID NOs: 32 and 33, VL framework V1-12 and VH framework V3-7), were further evaluated for their aggregation level after purification.

Where [1] appears, read: antibody concentrated (Ab 3 21.2 mg/ml, hAb 21 27.8 mg/ml), in Tier-1 buffer.

Where two headings read alike, the source gives them in different places.

B1: KM871: chR24 (hAb.51) chimeric version (hIgG1, kappa) of KM641 (SEQ ID NOs: 28 and 29) (antibody, V domains shown)
VH: EVTLVESGGDFVKPGGSLKVSCAASGFAFSHYAMSWVRQTPAKRLEWVAYISSGGSGTYYSDSVKGRFTISRDNAKNTLYLQMRSLRSEDSAMYFCTRVKLGTYYFDSWGQGTTLTVSS
VL: DIQMTQTASSLPASLGDRVTISCSASQDISNYLNWYQQKPDGTVKLLIFYSSNLHSGVPSRFSGGGSGTDYSLTISNLEPEDIATYFCHQYSKLPWTFGGGTKLEIK
For the molecule B1, the Kd (in general, a measure of binding affinity in units of concentration) is 9.02 nM; the Kdis was 0.00596 s⁻¹; the Kon is 1.33e+06 M⁻¹ s⁻¹.

B2: hAb 3: fully humanized mR24 based on framework shuffle (SEQ ID NOs: 32 and 33, VL framework V1-12 and VH framework V3-7) (antibody, V domains shown)
VH: EVQLVESGGGLVQPGGSLRLSCAASGFTFSNFGMHWVRQAPGKGLEWVAYISSGGSSINYADTVKGRFTISRDNAKNSLYLQMNSLRAEDTAVYYCARGGTGTRSLYYFDYWGQGTLVTVSS
VL: DIQMTQSPSSVSASVGDRVTITCRASQDIGNFLNWYQQKPGKAPKLLIYYTSRLQSGVPSRFSGSGSGTDFTLTISSLQPEDFATYYCQQGKTLPYTFGGGTKVEIK
Turning to B2, under setting [1], the Kd is 59.7 nM, the Kdis is 0.00278 s⁻¹ and the Kon was 75400 M⁻¹ s⁻¹. Besides, under “antibody dialyzed in PBS”, the Kd was 55.8 nM, the Kdis is 0.00144 s⁻¹ and the Kon was 37700 M⁻¹ s⁻¹.

B3: hAb 21: fully humanized mR24 based on framework shuffle (SEQ ID NOs: 30 and 31, VL framework V3-11 and VH framework V3-7) (antibody, V domains shown)
VH: EVQLVESGGGLVQPGGSLRLSCAASGFTFSNFGMHWVRQAPGKGLEWVAYISSGGSSINYADTVKGRFTISRDNAKNSLYLQMNSLRAEDTAVYYCARGGTGTRSLYYFDYWGQGTLVTVSS
VL: EIVLTQSPATLSLSPGERATLSCRASQDIGNFLNWYQQKPGQAPRLLIYYTSRLQSGIPARFSGSGSGTDFTLTISSLEPEDFAVYYCQQGKTLPYTFGGGTKVEIK
Turning to B3, under setting [1], the Kd was 31.1 nM, the Kdis is 0.00111 s⁻¹ and the Kon is 44600 M⁻¹ s⁻¹. For the setting “antibody dialyzed in PBS”, the Kd is 28.9 nM, the Kdis was 0.00136 s⁻¹ and the Kon was 59700 M⁻¹ s⁻¹.

(Values after US20190048073A1, “ANTI-GD3 ANTIBODIES AND ANTIBODY-DRUG CONJUGATES” (Pfizer Inc., priority 2017, published 2019).)
